According to article PMC4423475, “Structure-based discovery of the first non-covalent inhibitors of Leishmania major tryparedoxin peroxidase by high throughput docking” (Scientific Reports, 2015):

Target: Tryparedoxin peroxidase I from Leishmania major (LmTXNPx) (Leishmania major)
Assay: crystal structure; hanging drop vapor diffusion at 293 K; 12 mg/mL protein in 20 mM Tris-HCl pH 7.5 with 50 mM DTT (reduced); pentamer in the asymmetric unit, decamer from two pentamers of adjacent asymmetric units

stoichiometry N: 10
Substance: Tryparedoxin peroxidase I from Leishmania major (LmTXNPx) (enzyme)
